According to the Immune Epitope Database (IEDB):
Values belong to the sequence of their own block, whether it stands above or below them.

Legend:
[1] = target: HLA-A*11:01; assay: IEDB peptide-MHC binding, purified MHC/competitive/fluorescence; ≥ and ≤ were set here for values at or beyond the usual limits of such assays; conditions: source organism: Zaire ebolavirus
[2] = target: HLA-A*03:01; assay: as above; conditions: source organism: Zaire ebolavirus
[3] = target: HLA-A*24:02; assay: as above; conditions: source organism: Zaire ebolavirus
[4] = target: HLA-A*02:01; assay: as above
[5] = target: HLA-A*01:01; assay: as above
[6] = target: HLA-B*15:01; assay: as above; conditions: source organism: Zaire ebolavirus
[7] = target: HLA-A*11:01; assay: IEDB peptide-MHC binding, purified MHC/direct/fluorescence; filed as Kd, often an IC50 or EC50 that approximates it; ≥ and ≤ were set here for values at or beyond the usual limits of such assays
[8] = target: HLA-B*15:02; assay: as above
[9] = target: HLA-A*31:01; assay: as above
[10] = target: HLA-B*07:02; assay: as above
[11] = target: HLA-A*69:01; assay: as above
[12] = target: HLA-A*03:01; assay: as above
[13] = target: HLA-B*40:01; assay: as above; conditions: source organism: Vibrio parahaemolyticus
[14] = target: HLA-B*08:01; assay: as above
[15] = target: HLA-B*58:01; assay: as above
[16] = target: HLA-B*27:05; assay: as above
[17] = target: HLA-B*46:01; assay: as above
[18] = target: HLA-A*26:01; assay: as above
[19] = target: HLA-B*44:02; assay: as above; conditions: source organism: Vibrio parahaemolyticus
[20] = target: HLA-A*02:01; assay: as above
[21] = target: HLA-A*01:01; assay: as above
[22] = target: HLA-B*15:01; assay: as above
[23] = target: HLA-A*11:01; assay: IEDB peptide-MHC binding, purified MHC/competitive/fluorescence; filed as Kd, often an IC50 or EC50 that approximates it; ≥ and ≤ were set here for values at or beyond the usual limits of such assays; conditions: source organism: Campylobacter jejuni subsp. jejuni NCTC 11168 = ATCC 700819
[24] = target: HLA-B*57:01; assay: IEDB peptide-MHC binding, purified MHC/direct/fluorescence; filed as Kd, often an IC50 or EC50 that approximates it; ≥ and ≤ were set here for values at or beyond the usual limits of such assays
[25] = target: HLA-B*18:01; assay: as above; conditions: source organism: Campylobacter jejuni RM1221
[26] = target: HLA-B*15:17; assay: as above
[27] = target: HLA-B*48:01; assay: as above; conditions: source organism: Campylobacter jejuni RM1221
[28] = target: HLA-A*68:02; assay: as above
[29] = target: HLA-B*73:01; assay: as above; conditions: source organism: Campylobacter jejuni RM1221
[30] = target: HLA-C*04:01; assay: IEDB peptide-MHC binding, purified MHC/competitive/fluorescence; filed as Kd, often an IC50 or EC50 that approximates it; ≥ and ≤ were set here for values at or beyond the usual limits of such assays; conditions: source organism: Francisella tularensis subsp. tularensis FSC198
[31] = target: HLA-C*14:02; assay: as above; conditions: source organism: Francisella tularensis subsp. tularensis FSC198
[32] = target: HLA-B*45:06; assay: as above; conditions: source organism: Francisella tularensis subsp. tularensis FSC198
[33] = target: HLA-B*15:42; assay: as above; conditions: source organism: Francisella tularensis subsp. tularensis FSC198
[34] = target: HLA-B*83:01; assay: as above; conditions: source organism: Francisella tularensis subsp. tularensis FSC198
[35] = target: HLA-A*80:01; assay: IEDB peptide-MHC binding, purified MHC/direct/fluorescence; filed as Kd, often an IC50 or EC50 that approximates it; ≥ and ≤ were set here for values at or beyond the usual limits of such assays; conditions: source organism: Francisella tularensis subsp. holarctica LVS
[36] = target: HLA-C*08:02; assay: as above; conditions: source organism: Francisella tularensis subsp. tularensis FSC198
[37] = target: HLA-B*35:01; assay: as above; conditions: source organism: Burkholderia mallei ATCC 23344
[38] = target: HLA-A*02:01; assay: IEDB peptide-MHC binding, cellular MHC/competitive/fluorescence; ≥ and ≤ were set here for values at or beyond the usual limits of such assays
[39] = target: HLA-B*18:01; assay: IEDB peptide-MHC binding, purified MHC/competitive/fluorescence; filed as Kd, often an IC50 or EC50 that approximates it; ≥ and ≤ were set here for values at or beyond the usual limits of such assays; conditions: source organism: Mammarenavirus lassaense
[40] = target: HLA-A*02:06; assay: as above; conditions: source organism: Mammarenavirus lassaense
[41] = target: HLA-A*26:02; assay: IEDB peptide-MHC binding, purified MHC/direct/fluorescence; filed as Kd, often an IC50 or EC50 that approximates it; ≥ and ≤ were set here for values at or beyond the usual limits of such assays; conditions: source organism: Mammarenavirus lassaense
[42] = target: HLA-A*23:01; assay: as above; conditions: source organism: Mammarenavirus lassaense
[43] = target: HLA-A*24:02; assay: as above; conditions: source organism: Mammarenavirus lassaense
[44] = target: HLA-B*08:03; assay: as above; conditions: source organism: Mammarenavirus lassaense
[45] = target: HLA-A*24:03; assay: as above; conditions: source organism: Mammarenavirus lassaense
[46] = source organism: Zaire ebolavirus
[47] = source organism: Vibrio parahaemolyticus
[48] = source organism: Campylobacter jejuni RM1221
[49] = source organism: Burkholderia mallei ATCC 23344
[50] = source organism: Burkholderia mallei
[51] = source organism: Orthohantavirus hantanense
[52] = source organism: Mammarenavirus lassaense

Sequence: SLPKTSGHY
IC50 [1]: ≥ 105 µM
IC50 [2]: ≥ 91.7 µM
IC50 [3]: 47.5 µM
IC50 [4, 46]: ≥ 368 µM
IC50 [5, 46]: 37.8 µM
IC50 [6]: 4.02 µM

Sequence: VQGYERIMY
Kd [7, 47]: ≥ 20 µM
Kd [8, 47]: ≥ 20 µM
Kd [9, 47]: ≥ 20 µM
Kd [10, 47]: ≥ 20 µM
Kd [11, 47]: ≥ 20 µM
Kd [12, 47]: ≥ 20 µM
Kd [13]: ≥ 20 µM
Kd [14, 47]: ≥ 20 µM
Kd [15, 47]: ≥ 20 µM
Kd [16, 47]: ≥ 20 µM
Kd [17, 47]: ≥ 20 µM
Kd [18, 47]: ≥ 20 µM
Kd [19]: ≥ 20 µM
Kd [20, 47]: ≥ 20 µM
Kd [21, 47]: ≥ 20 µM
Kd [22, 47]: 0.271 µM

Sequence: AKYEICLEK
Kd [23]: ≥ 20 µM
Kd [24, 48]: ≥ 20 µM
Kd [9, 48]: ≥ 20 µM
Kd [25]: ≥ 20 µM
Kd [10, 48]: ≥ 20 µM
Kd [11, 48]: ≥ 20 µM
Kd [26, 48]: ≥ 20 µM
Kd [12, 48]: ≥ 20 µM
Kd ([14]; source organism: Campylobacter jejuni subsp. jejuni 81-176): ≥ 20 µM
Kd [15, 48]: ≥ 20 µM
Kd [27]: ≥ 20 µM
Kd [28, 48]: ≥ 20 µM
Kd [29]: ≥ 20 µM
Kd [16, 48]: ≥ 20 µM
Kd [20, 48]: ≥ 20 µM
Kd [21, 48]: ≥ 20 µM
Kd [22, 48]: ≥ 20 µM

Sequence: YTDKIAMSY
Kd [30]: ≥ 5 µM
Kd [31]: 0.0684 µM
Kd [32]: ≥ 5 µM
Kd [33]: ≥ 5 µM
Kd [34]: ≥ 5 µM
Kd [35]: 0.0005 µM
Kd [36]: 0.651 µM
Kd ([21]; source organism: Francisella tularensis subsp. holarctica LVS): ≤ 0.001 µM

Sequence: MMYASWGVH
Kd [8, 49]: 0.003 µM
Kd [10, 49]: ≥ 20 µM
Kd [17, 50]: 3.76 µM
Kd [37]: 2.68 µM
Kd [22, 50]: 0.0082 µM

Sequence: KIDSMFLMT
IC50 ([4]; source organism: Variola virus): 0.565 µM
IC50 ([5]; source organism: Variola virus): ≥ 104 µM

Sequence: YMDDLYVGSD
IC50 ([38]; source organism: Human immunodeficiency virus 1): 8 µM

Sequence: FQHERLGQF
Kd ([8]; source organism: Hantaan virus Q32): 0.029 µM
Kd [17, 51]: 0.783 µM
Kd [22, 51]: 0.0204 µM

IC50 ([38]; source organism: Homo sapiens): 15 µM
Sequence: SLLDKIIGA

Sequence: GYAWIDFDI
Kd [39]: 0.408 µM
Kd [40]: ≥ 20 µM
Kd [24, 52]: ≥ 20 µM
Kd [7, 52]: ≥ 20 µM
Kd [9, 52]: ≥ 20 µM
Kd [41]: ≥ 20 µM
Kd [42]: 0.0039 µM
Kd [10, 52]: ≥ 20 µM
Kd [26, 52]: ≥ 20 µM
Kd [43]: 0.0037 µM
Kd [14, 52]: ≥ 20 µM
Kd [15, 52]: ≥ 20 µM
Kd [28, 52]: ≥ 20 µM
Kd [18, 52]: ≥ 20 µM
Kd [20, 52]: ≥ 20 µM
Kd [44]: ≥ 20 µM
Kd [45]: 0.0034 µM
Kd [21, 52]: ≥ 20 µM
Kd [22, 52]: ≥ 20 µM
